Test results taken from patent US20030154500, “Nucleic acid transfer vector for the introduction of nucleic acid into the DNA of a cell” (Regents of the University of Minnesota, published 2003).

T1: SB transposase N123 (N-terminal DNA-binding domain, residues 1-123) (synthetic (salmonid consensus))
T1 chain: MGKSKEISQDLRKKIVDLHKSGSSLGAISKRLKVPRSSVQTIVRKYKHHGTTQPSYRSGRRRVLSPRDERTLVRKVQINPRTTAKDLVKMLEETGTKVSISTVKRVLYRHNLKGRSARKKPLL

B1: salmonid outer transposase-binding site (dsDNA)
DNA 1: GTTGAAGTCGGAAGTTTACATACACTTAGG
DNA 2: CCTAAGTGTATGTAAACTTCCGACTTCAAC
B2: salmonid internal transposase-binding site (dsDNA)
DNA 1: CCAGTGGGTCAGAAGTTTACATACACTAAG
DNA 2: CTTAGTGTATGTAAACTTCTGACCCACTGG

Target: T1, SB transposase N123 (N-terminal …)
Assay: footprint; DNase I, 30-bp protected region within left IR probe
Settings: tags: C-terminal His tag (pET21a)
Procedure: In addition to the NLS function, N123 also contains the specific DNA-binding domain of SB, as tested in a mobility-shift assay (FIG. 3B). A 300 bp EcoRI/HindIII fragment of pT comprising the left inverted repeat of the element was end-labeled using [α³²P]dCTP and Klenow. Nucleoprotein complexes were formed in 20 mM HEPES (pH 7.5), 0.1 mM EDTA, 0.1 mg/ml BSA, 150 mM NaCl, 1 mM DTT in a total volume of 10 μl. Reactions contained 100 pg labeled probe, 2 μg poly[dI][dC] and 1.5 μl N123. After 15 min incubation on ice, 5 μl of loading dye containing 50% glycerol and bromophenol blue was added and the samples loaded onto a 5% polyacrylamide gel (Ausubel). DNaseI footprinting was done using a kit from BRL according to the recommendations of the manufacturer. […]
The number of the deoxyribonucleoprotein complexes detected by the mobility-shift assay at increasingly higher N123 concentrations indicated two protein molecules bound per IR (FIG. 3B, right panel), consistent with either two binding sites for transposase within the IR or a transposase dimer bound to a single site. Transposase-binding sites were further analyzed and mapped in a DNasel footprinting experiment. […]

Binder	binding result
B1	binds
B2	binds
